Experimental data taken from patent US20240376151A1, “STAPLED PEPTIDES AND METHODS THEREOF” (FOG PHARMACEUTICALS, INC., priority 2022, published 2024).
Numbered stars: 1 amine (or outer) side, 2 acyl side, 3 side chain; on linkers, the order of the positions; unused ones are H or OH. Bridge positions count the residues as written; N and C are the ends. Ends that are not written are not given here. Phenylene(1,4-NHCOCH2)2 = O=C(C[*:1])Nc1ccc(NC(=O)C[*:2])cc1

Legend:
PPIA = molecular target: T1, PPIA (Homo sapiens, UniProt P62937); test: Phage Library Screening with NGS, PPIA; assay type: binding
T1 construct: Full length PPIA (residues 1-165) with an N-terminal 6×his-yBBR-TEV tag; 6×his-yBBR-TEV (N); made in house; host or cells: E. coli BL21 (DE3) CodonPlus RIPL
T1 sequence (P62937 whole entry, the tested form may be a part): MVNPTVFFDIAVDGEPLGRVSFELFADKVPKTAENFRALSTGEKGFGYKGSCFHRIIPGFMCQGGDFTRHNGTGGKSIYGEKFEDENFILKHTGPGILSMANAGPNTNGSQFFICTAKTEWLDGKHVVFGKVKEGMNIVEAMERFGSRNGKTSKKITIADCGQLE

MDM2 = molecular target: T2, MDM2 (Homo sapiens, UniProt Q00987); test: Naive Library Presenter Screening (phage, NGS), MDM2; assay type: binding; conditions: for interaction data, BLANK: Blank = Media only
T2 construct: made in house
T2 sequence (Q00987 25-109): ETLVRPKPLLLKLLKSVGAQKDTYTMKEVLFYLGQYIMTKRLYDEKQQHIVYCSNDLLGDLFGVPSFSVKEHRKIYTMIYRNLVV

[1] = target concentration 1000, first column
[2] = target concentration 1000, second column
[3] = MDM2 target concentration 10 nM
[4] = MDM2 target concentration 30 nM
[5] = MDM2 target concentration 100 nM
[6] = MDM2 target concentration 300 nM
[7] = MDM2 target concentration 1000 nM, first column
[8] = MDM2 target concentration 1000 nM, second column
[9] = MDM2 clusters (C82, C85), first column
[10] = MDM2 clusters (C82, C85), second column
[11] = MDM2 clusters (C82, C85), target concentration 10 nM
[12] = MDM2 clusters (C82, C85), target concentration 30 nM
[13] = MDM2 clusters (C82, C85), target concentration 100 nM
[14] = MDM2 clusters (C82, C85), target concentration 300 nM
[15] = MDM2 clusters (C82, C85), target concentration 1000 nM, first column
[16] = MDM2 clusters (C82, C85), target concentration 1000 nM, second column

| Sequence | phage screen counts, Target Concentration 10 (PPIA) | phage screen counts, Target Concentration 30 (PPIA) | phage screen counts, Target Concentration 100 (PPIA) | phage screen counts, Target Concentration 300 (PPIA) | phage screen counts, Target Concentration 1000 (PPIA; [1]) | phage screen counts, Target Concentration 1000 (PPIA; [2]) | other results |
| --- | --- | --- | --- | --- | --- | --- | --- |
| DPAAFSCHVAAWQCHTL | 0 | 1 | 156 | 199 | 142 | 190 |  |
| DPAAHDCHIAAYWCLNY | 0 | 7 | 116 | 208 | 201 | 121 |  |
| DPALFDCHIAAYQCIFY | 0 | 0 | 25 | 29 | 20 | 55 |  |
| DPAQADCHIAAYLCLFD | 0 | 0 | 10 | 19 | 25 | 18 |  |
| DPAQHDCHVAAYQCIWE | 0 | 52 | 273 | 416 | 616 | 456 |  |
| DPAQLNCHVAAFFCFQS | 0 | 0 | 21 | 27 | 125 | 8 |  |
| DPARAACHVAAYWCYHQ | 0 | 1 | 3 | 7 | 6 | 7 |  |
| DPARADCHVAAYWCHHQ | 0 | 0 | 4 | 5 | 8 | 7 |  |
| DPARADCHVAAYWCYHE | 0 | 1 | 4 | 7 | 9 | 7 |  |
| DPARADCHVAAYWCYHR | 0 | 1 | 6 | 6 | 7 | 6 |  |
| DPARADCHVAAYWCYQQ | 0 | 1 | 6 | 8 | 10 | 10 |  |
| DPARADCQVAAYWCYHQ | 0 | 3 | 13 | 16 | 20 | 21 |  |
| DPARADCRVAAYWCYHQ | 0 | 1 | 6 | 6 | 11 | 7 |  |
| DPASEACFQAAWDCVSW (DPASEACFQAAWDCVSW-NH2; linker 7-14 via Phenylene(1,4-NHCOCH2)2 (inferred)) |  |  |  |  |  |  | interaction data at Target Concentration 10 (MDM2; [3]): 2; interaction data at Target Concentration 30 (MDM2; [4]): 57; interaction data at Target Concentration 100 (MDM2; [5]): 241; interaction data at Target Concentration 300 (MDM2; [6]): 559; interaction data at Target Concentration 1000 (MDM2; [7]): 336; interaction data at Target Concentration 1000 (MDM2; [8]): 447 |
| DPASQDCFSAAWQCLQT (DPASQDCFSAAWQCLQT-NH2; linker 7-14 via Phenylene(1,4-NHCOCH2)2 (inferred)) |  |  |  |  |  |  | interaction data, BLANK (MDM2; [9]): 0; interaction data, BLANK (MDM2; [10]): 0; interaction data at Target Concentration 10 (MDM2; [11]): 0; interaction data at Target Concentration 30 (MDM2; [12]): 31; interaction data at Target Concentration 100 (MDM2; [13]): 138; interaction data at Target Concentration 300 (MDM2; [14]): 165; interaction data at Target Concentration 1000 (MDM2; [15]): 94; interaction data at Target Concentration 1000 (MDM2; [16]): 231 |
| DPATESCEDAAFWCHWI (DPATESCEDAAFWCHWI-NH2; linker 7-14 via Phenylene(1,4-NHCOCH2)2 (inferred)) |  |  |  |  |  |  | interaction data, BLANK (MDM2; [9]): 0; interaction data, BLANK (MDM2; [10]): 0; interaction data at Target Concentration 10 (MDM2; [11]): 0; interaction data at Target Concentration 30 (MDM2; [12]): 0; interaction data at Target Concentration 100 (MDM2; [13]): 30; interaction data at Target Concentration 300 (MDM2; [14]): 30; interaction data at Target Concentration 1000 (MDM2; [15]): 30; interaction data at Target Concentration 1000 (MDM2; [16]): 70 |
| DPATQQCFQAAWDCQFM (linker 7-14 via Phenylene(1,4-NHCOCH2)2 (inferred)) |  |  |  |  |  |  | interaction data at Target Concentration 10 (MDM2; [3]): 1; interaction data at Target Concentration 30 (MDM2; [4]): 60; interaction data at Target Concentration 100 (MDM2; [5]): 324; interaction data at Target Concentration 300 (MDM2; [6]): 683; interaction data at Target Concentration 1000 (MDM2; [8]): 679 |
| DPAVTECFQAAWRCMVM (linker 7-14 via Phenylene(1,4-NHCOCH2)2 (inferred); not fully specified (C-terminus)) |  |  |  |  |  |  | interaction data, BLANK (MDM2; [9]): 0; interaction data, BLANK (MDM2; [10]): 0; interaction data at Target Concentration 10 (MDM2; [11]): 0; interaction data at Target Concentration 30 (MDM2; [12]): 77; interaction data at Target Concentration 100 (MDM2; [13]): 184; interaction data at Target Concentration 300 (MDM2; [14]): 276; interaction data at Target Concentration 1000 (MDM2; [15]): 269; interaction data at Target Concentration 1000 (MDM2; [16]): 268 |
| DPAYASCFSAAWDCQFW (linker 7-14 via Phenylene(1,4-NHCOCH2)2 (inferred)) |  |  |  |  |  |  | interaction data at Target Concentration 10 (MDM2; [3]): 0; interaction data at Target Concentration 30 (MDM2; [4]): 0; interaction data at Target Concentration 100 (MDM2; [5]): 19; interaction data at Target Concentration 300 (MDM2; [6]): 21; interaction data at Target Concentration 1000 (MDM2; [7]): 13; interaction data at Target Concentration 1000 (MDM2; [8]): 38 |
| DPAYEDCFFAAWNCMMV (linker 7-14 via Phenylene(1,4-NHCOCH2)2 (inferred)) |  |  |  |  |  |  | interaction data, BLANK (MDM2; [9]): 0; interaction data, BLANK (MDM2; [10]): 0; interaction data at Target Concentration 10 (MDM2; [11]): 0; interaction data at Target Concentration 30 (MDM2; [12]): 5; interaction data at Target Concentration 100 (MDM2; [13]): 18; interaction data at Target Concentration 300 (MDM2; [14]): 17; interaction data at Target Concentration 1000 (MDM2; [15]): 23; interaction data at Target Concentration 1000 (MDM2; [16]): 39 |
| DPAYSDCFQAAWTCMIH (linker 7-14 via Phenylene(1,4-NHCOCH2)2 (inferred)) |  |  |  |  |  |  | interaction data, BLANK (MDM2; [9]): 0; interaction data, BLANK (MDM2; [10]): 0; interaction data at Target Concentration 10 (MDM2; [11]): 0; interaction data at Target Concentration 30 (MDM2; [12]): 78; interaction data at Target Concentration 100 (MDM2; [13]): 135; interaction data at Target Concentration 300 (MDM2; [14]): 155; interaction data at Target Concentration 1000 (MDM2; [15]): 110; interaction data at Target Concentration 1000 (MDM2; [16]): 150 |
| DPAYTQCSDAAFMCWWW (linker 7-14 via Phenylene(1,4-NHCOCH2)2 (inferred)) |  |  |  |  |  |  | interaction data, BLANK (MDM2; [9]): 0; interaction data, BLANK (MDM2; [10]): 0; interaction data at Target Concentration 10 (MDM2; [11]): 0; interaction data at Target Concentration 30 (MDM2; [12]): 19; interaction data at Target Concentration 100 (MDM2; [13]): 32; interaction data at Target Concentration 300 (MDM2; [14]): 48; interaction data at Target Concentration 1000 (MDM2; [15]): 65; interaction data at Target Concentration 1000 (MDM2; [16]): 62 |
